Key:
[1] = target: Ss-DAF-2B, isoform B of the insulin receptor homolog Ss-DAF-2 of Strongyloides stercoralis (Strongyloides stercoralis)
[2] = target: Ss-DAF-2B, isoform B of the insulin receptor homolog Ss-DAF-2 of Strongyloides stercoralis (Strongyloides stercoralis); remark: listed apart in the source

bovine insulin (ligand)
Ss-daf-2 transcript level in iL3 treated with bovine insulin, fold change against control (RT-PCR); no significant effect [1]: 1 fold | feeding rate of S. stercoralis iL3 with bovine insulin; endogenous Ss-DAF-2, isoforms not told apart [2]: 38.2%

human insulin (Hs-INS) (from UniProt P01308 1-110) (ligand)
Ss-daf-2 transcript level in iL3 treated with human insulin, fold change against control (RT-PCR) [1]: 2.6 fold | feeding rate of S. stercoralis iL3 with human insulin compared with porcine and bovine insulin at equivalent concentrations; endogenous Ss-DAF-2, isoforms not told apart [2]: 72.2%

porcine insulin (ligand)
Ss-daf-2 transcript level in iL3 treated with porcine insulin, fold change against control (RT-PCR); no significant effect [1]: 0.9 fold | feeding rate of S. stercoralis iL3 with porcine insulin; endogenous Ss-DAF-2, isoforms not told apart [2]: 0.7%

— article PMC12711028
